According to patent US10941182 (Amgen, dated 2021):
Starred links: 1 amine or outer side, 2 acyl side, 3 side chain; linkers in the order of their positions; H or OH if unused. Non-standard residues stand in square brackets, D forms with d. *: point of attachment. dBip = N[C@H](Cc1ccc(-c2ccccc2)cc1)C(=O)O; Oic = O=C(O)[C@@H]1C[C@@H]2CCCC[C@@H]2N1; Phe(4-Cl) = N[C@@H](Cc1ccc(Cl)cc1)C(=O)O; Phe(4-I) = N[C@@H](Cc1ccc(I)cc1)C(=O)O; γGlu = O=C(O)[C@H](CCC(=O)[*:2])N[*:1]; Tridecanoyl = CCCCCCCCCCCCC(=O)*; hArg = N=C(N)NCCCC[C@H](N)C(=O)O; Cha = N[C@@H](CC1CCCCC1)C(=O)O; NMeL = CN[C@@H](CC(C)C)C(=O)O; Tle = CC(C)(C)[C@H](N)C(=O)O; Nle = CCCC[C@H](N)C(=O)O; AEEA = NCCOCCOCC(=O)O

What was measured:
human APJ receptor = target: T1, human APJ receptor (human, UniProt P35414 1-380); assay: cell-based or functional assay
T1 sequence (looked up): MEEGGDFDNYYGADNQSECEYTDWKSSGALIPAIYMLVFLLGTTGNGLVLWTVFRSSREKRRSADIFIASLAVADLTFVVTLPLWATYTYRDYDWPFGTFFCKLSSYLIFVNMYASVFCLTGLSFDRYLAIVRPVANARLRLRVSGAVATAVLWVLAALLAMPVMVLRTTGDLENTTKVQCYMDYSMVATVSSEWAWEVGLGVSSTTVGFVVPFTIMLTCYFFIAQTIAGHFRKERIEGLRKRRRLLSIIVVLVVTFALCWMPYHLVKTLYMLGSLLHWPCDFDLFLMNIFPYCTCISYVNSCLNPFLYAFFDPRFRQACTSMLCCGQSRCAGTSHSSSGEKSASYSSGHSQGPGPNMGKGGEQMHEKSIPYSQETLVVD

rat APJ receptor = target: T2, rat APJ receptor (rat, UniProt Q9JHG3 1-377); assay: cell-based or functional assay
T2 sequence (looked up): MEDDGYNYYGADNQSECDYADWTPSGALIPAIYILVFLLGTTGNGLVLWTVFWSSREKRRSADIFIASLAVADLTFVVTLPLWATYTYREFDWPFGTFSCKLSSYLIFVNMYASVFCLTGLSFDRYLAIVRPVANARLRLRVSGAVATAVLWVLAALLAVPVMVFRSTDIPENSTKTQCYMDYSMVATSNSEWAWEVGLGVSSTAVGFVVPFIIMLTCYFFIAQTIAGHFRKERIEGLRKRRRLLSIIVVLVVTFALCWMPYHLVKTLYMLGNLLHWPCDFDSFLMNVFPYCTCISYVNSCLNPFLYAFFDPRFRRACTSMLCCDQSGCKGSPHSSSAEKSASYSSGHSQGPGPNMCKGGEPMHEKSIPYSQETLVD

Binder | EC50 Human APJ Receptor (GTPγS assay) (human APJ receptor) [nM] | EC50 Rat APJ Receptor (GTPγS assay) (rat APJ receptor) [nM]
Tridecanoyl-[γGlu][AEEA][AEEA][hArg][dR]Q[Nle]P[dR][NMeL]SAKG[Oic][Phe(4-I)]P[dBip]-OH (SMILES CCCCCCCCCCCCC(=O)N[C@@H](CCC(=O)NCCOCCOCC(=O)NCCOCCOCC(=O)N[C@@H](CCCCNC(=N)N)C(=O)N[C@H](CCCNC(=N)N)C(=O)N[C@@H](CCC(N)=O)C(=O)N[C@@H](CCCC)C(=O)N1CCC[C@H]1C(=O)N[C@H](CCCNC(=N)N)C(=O)N(C)[C@@H](CC(C)C)C(=O)N[C@@H](CO)C(=O)N[C@@H](C)C(=O)N[C@@H](CCCCN)C(=O)NCC(=O)N1[C@H](C(=O)N[C@@H](Cc2ccc(I)cc2)C(=O)N2CCC[C@H]2C(=O)N[C@H](Cc2ccc(-c3ccccc3)cc2)C(=O)O)C[C@@H]2CCCC[C@@H]21)C(=O)O) [Apelin polypeptide SEQ ID NO: 328] | 9.17 | 7.7
Tridecanoyl-[γGlu][AEEA][AEEA][hArg][dR]Q[Nle]P[dR][NMeL]SHKG[Oic][Phe(4-I)]P[dBip]-OH (SMILES CCCCCCCCCCCCC(=O)N[C@@H](CCC(=O)NCCOCCOCC(=O)NCCOCCOCC(=O)N[C@@H](CCCCNC(=N)N)C(=O)N[C@H](CCCNC(=N)N)C(=O)N[C@@H](CCC(N)=O)C(=O)N[C@@H](CCCC)C(=O)N1CCC[C@H]1C(=O)N[C@H](CCCNC(=N)N)C(=O)N(C)[C@@H](CC(C)C)C(=O)N[C@@H](CO)C(=O)N[C@@H](Cc1c[nH]cn1)C(=O)N[C@@H](CCCCN)C(=O)NCC(=O)N1[C@H](C(=O)N[C@@H](Cc2ccc(I)cc2)C(=O)N2CCC[C@H]2C(=O)N[C@H](Cc2ccc(-c3ccccc3)cc2)C(=O)O)C[C@@H]2CCCC[C@@H]21)C(=O)O) [Apelin polypeptide SEQ ID NO: 316] | 6 | 9.29
Tridecanoyl-[γGlu][AEEA][AEEA][Nle]QRP[hArg][Cha]AAKG[Oic][Nle]P[Phe(4-Cl)]-OH (SMILES CCCCCCCCCCCCC(=O)N[C@@H](CCC(=O)NCCOCCOCC(=O)NCCOCCOCC(=O)N[C@@H](CCCC)C(=O)N[C@@H](CCC(N)=O)C(=O)N[C@@H](CCCNC(=N)N)C(=O)N1CCC[C@H]1C(=O)N[C@@H](CCCCNC(=N)N)C(=O)N[C@@H](CC1CCCCC1)C(=O)N[C@@H](C)C(=O)N[C@@H](C)C(=O)N[C@@H](CCCCN)C(=O)NCC(=O)N1[C@H](C(=O)N[C@@H](CCCC)C(=O)N2CCC[C@H]2C(=O)N[C@@H](Cc2ccc(Cl)cc2)C(=O)O)C[C@@H]2CCCC[C@@H]21)C(=O)O) [Apelin polypeptide SEQ ID NO: 347] | 1.89 | 2.13
Tridecanoyl-[γGlu][AEEA][AEEA][Nle]QRP[hArg][Cha]SAKG[Oic][Nle]P[Phe(4-Cl)]-OH (SMILES CCCCCCCCCCCCC(=O)N[C@@H](CCC(=O)NCCOCCOCC(=O)NCCOCCOCC(=O)N[C@@H](CCCC)C(=O)N[C@@H](CCC(N)=O)C(=O)N[C@@H](CCCNC(=N)N)C(=O)N1CCC[C@H]1C(=O)N[C@@H](CCCCNC(=N)N)C(=O)N[C@@H](CC1CCCCC1)C(=O)N[C@@H](CO)C(=O)N[C@@H](C)C(=O)N[C@@H](CCCCN)C(=O)NCC(=O)N1[C@H](C(=O)N[C@@H](CCCC)C(=O)N2CCC[C@H]2C(=O)N[C@@H](Cc2ccc(Cl)cc2)C(=O)O)C[C@@H]2CCCC[C@@H]21)C(=O)O) [Apelin polypeptide SEQ ID NO: 342] | 0.803 | 0.684
Tridecanoyl-[γGlu][AEEA][AEEA][Nle]QRP[hArg][Cha]SHKG[Oic][Nle]P[Phe(4-Cl)]-OH (SMILES CCCCCCCCCCCCC(=O)N[C@@H](CCC(=O)NCCOCCOCC(=O)NCCOCCOCC(=O)N[C@@H](CCCC)C(=O)N[C@@H](CCC(N)=O)C(=O)N[C@@H](CCCNC(=N)N)C(=O)N1CCC[C@H]1C(=O)N[C@@H](CCCCNC(=N)N)C(=O)N[C@@H](CC1CCCCC1)C(=O)N[C@@H](CO)C(=O)N[C@@H](Cc1c[nH]cn1)C(=O)N[C@@H](CCCCN)C(=O)NCC(=O)N1[C@H](C(=O)N[C@@H](CCCC)C(=O)N2CCC[C@H]2C(=O)N[C@@H](Cc2ccc(Cl)cc2)C(=O)O)C[C@@H]2CCCC[C@@H]21)C(=O)O) [Apelin polypeptide SEQ ID NO: 338] | 0.56 | 0.766
Tridecanoyl-[γGlu][AEEA][AEEA][Nle][dR]Q[hArg]P[dR][NMeL]AAKG[Oic][Phe(4-I)]P[dBip]-OH (SMILES CCCCCCCCCCCCC(=O)N[C@@H](CCC(=O)NCCOCCOCC(=O)NCCOCCOCC(=O)N[C@@H](CCCC)C(=O)N[C@H](CCCNC(=N)N)C(=O)N[C@@H](CCC(N)=O)C(=O)N[C@@H](CCCCNC(=N)N)C(=O)N1CCC[C@H]1C(=O)N[C@H](CCCNC(=N)N)C(=O)N(C)[C@@H](CC(C)C)C(=O)N[C@@H](C)C(=O)N[C@@H](C)C(=O)N[C@@H](CCCCN)C(=O)NCC(=O)N1[C@H](C(=O)N[C@@H](Cc2ccc(I)cc2)C(=O)N2CCC[C@H]2C(=O)N[C@H](Cc2ccc(-c3ccccc3)cc2)C(=O)O)C[C@@H]2CCCC[C@@H]21)C(=O)O) [Apelin polypeptide SEQ ID NO: 332] | 40 | 50.5
Tridecanoyl-[γGlu][AEEA][AEEA][Nle][dR]Q[hArg]P[dR][NMeL]AHKG[Oic][Phe(4-I)]P[dBip]-OH (SMILES CCCCCCCCCCCCC(=O)N[C@@H](CCC(=O)NCCOCCOCC(=O)NCCOCCOCC(=O)N[C@@H](CCCC)C(=O)N[C@H](CCCNC(=N)N)C(=O)N[C@@H](CCC(N)=O)C(=O)N[C@@H](CCCCNC(=N)N)C(=O)N1CCC[C@H]1C(=O)N[C@H](CCCNC(=N)N)C(=O)N(C)[C@@H](CC(C)C)C(=O)N[C@@H](C)C(=O)N[C@@H](Cc1c[nH]cn1)C(=O)N[C@@H](CCCCN)C(=O)NCC(=O)N1[C@H](C(=O)N[C@@H](Cc2ccc(I)cc2)C(=O)N2CCC[C@H]2C(=O)N[C@H](Cc2ccc(-c3ccccc3)cc2)C(=O)O)C[C@@H]2CCCC[C@@H]21)C(=O)O) [Apelin polypeptide SEQ ID NO: 320] | 17.9 | 37.7
Tridecanoyl-[γGlu][AEEA][AEEA][Nle][dR]Q[hArg]P[dR][NMeL]SAKG[Oic][Phe(4-I)]P[dBip]-OH (SMILES CCCCCCCCCCCCC(=O)N[C@@H](CCC(=O)NCCOCCOCC(=O)NCCOCCOCC(=O)N[C@@H](CCCC)C(=O)N[C@H](CCCNC(=N)N)C(=O)N[C@@H](CCC(N)=O)C(=O)N[C@@H](CCCCNC(=N)N)C(=O)N1CCC[C@H]1C(=O)N[C@H](CCCNC(=N)N)C(=O)N(C)[C@@H](CC(C)C)C(=O)N[C@@H](CO)C(=O)N[C@@H](C)C(=O)N[C@@H](CCCCN)C(=O)NCC(=O)N1[C@H](C(=O)N[C@@H](Cc2ccc(I)cc2)C(=O)N2CCC[C@H]2C(=O)N[C@H](Cc2ccc(-c3ccccc3)cc2)C(=O)O)C[C@@H]2CCCC[C@@H]21)C(=O)O) [Apelin polypeptide SEQ ID NO: 326] | 14.8 | 17.8
Tridecanoyl-[γGlu][AEEA][AEEA][Nle][dR]Q[hArg]P[dR][NMeL]SHKG[Oic][Phe(4-I)]P[dBip]-OH (SMILES CCCCCCCCCCCCC(=O)N[C@@H](CCC(=O)NCCOCCOCC(=O)NCCOCCOCC(=O)N[C@@H](CCCC)C(=O)N[C@H](CCCNC(=N)N)C(=O)N[C@@H](CCC(N)=O)C(=O)N[C@@H](CCCCNC(=N)N)C(=O)N1CCC[C@H]1C(=O)N[C@H](CCCNC(=N)N)C(=O)N(C)[C@@H](CC(C)C)C(=O)N[C@@H](CO)C(=O)N[C@@H](Cc1c[nH]cn1)C(=O)N[C@@H](CCCCN)C(=O)NCC(=O)N1[C@H](C(=O)N[C@@H](Cc2ccc(I)cc2)C(=O)N2CCC[C@H]2C(=O)N[C@H](Cc2ccc(-c3ccccc3)cc2)C(=O)O)C[C@@H]2CCCC[C@@H]21)C(=O)O) [Apelin polypeptide SEQ ID NO: 314] | 2.77 | 6.81
Tridecanoyl-[γGlu][AEEA][AEEA][Tle][hArg]P[dR][Cha]SHKG[Oic][Nle]P[Phe(4-Cl)]-OH (SMILES CCCCCCCCCCCCC(=O)N[C@@H](CCC(=O)NCCOCCOCC(=O)NCCOCCOCC(=O)N[C@H](C(=O)N[C@@H](CCCCNC(=N)N)C(=O)N1CCC[C@H]1C(=O)N[C@H](CCCNC(=N)N)C(=O)N[C@@H](CC1CCCCC1)C(=O)N[C@@H](CO)C(=O)N[C@@H](Cc1c[nH]cn1)C(=O)N[C@@H](CCCCN)C(=O)NCC(=O)N1[C@H](C(=O)N[C@@H](CCCC)C(=O)N2CCC[C@H]2C(=O)N[C@@H](Cc2ccc(Cl)cc2)C(=O)O)C[C@@H]2CCCC[C@@H]21)C(C)(C)C)C(=O)O) [Apelin polypeptide SEQ ID NO: 557] | 6.12 | 10.4
